Changes are numbered by the printed parent chain.

Experimental findings from patent US20240425885 are described below.

Common to all, as to experiment: cleavage_in_vitro
In series [1] the test system is T1, OMNI-134 (metagenomic, unknown).
T1 sequence: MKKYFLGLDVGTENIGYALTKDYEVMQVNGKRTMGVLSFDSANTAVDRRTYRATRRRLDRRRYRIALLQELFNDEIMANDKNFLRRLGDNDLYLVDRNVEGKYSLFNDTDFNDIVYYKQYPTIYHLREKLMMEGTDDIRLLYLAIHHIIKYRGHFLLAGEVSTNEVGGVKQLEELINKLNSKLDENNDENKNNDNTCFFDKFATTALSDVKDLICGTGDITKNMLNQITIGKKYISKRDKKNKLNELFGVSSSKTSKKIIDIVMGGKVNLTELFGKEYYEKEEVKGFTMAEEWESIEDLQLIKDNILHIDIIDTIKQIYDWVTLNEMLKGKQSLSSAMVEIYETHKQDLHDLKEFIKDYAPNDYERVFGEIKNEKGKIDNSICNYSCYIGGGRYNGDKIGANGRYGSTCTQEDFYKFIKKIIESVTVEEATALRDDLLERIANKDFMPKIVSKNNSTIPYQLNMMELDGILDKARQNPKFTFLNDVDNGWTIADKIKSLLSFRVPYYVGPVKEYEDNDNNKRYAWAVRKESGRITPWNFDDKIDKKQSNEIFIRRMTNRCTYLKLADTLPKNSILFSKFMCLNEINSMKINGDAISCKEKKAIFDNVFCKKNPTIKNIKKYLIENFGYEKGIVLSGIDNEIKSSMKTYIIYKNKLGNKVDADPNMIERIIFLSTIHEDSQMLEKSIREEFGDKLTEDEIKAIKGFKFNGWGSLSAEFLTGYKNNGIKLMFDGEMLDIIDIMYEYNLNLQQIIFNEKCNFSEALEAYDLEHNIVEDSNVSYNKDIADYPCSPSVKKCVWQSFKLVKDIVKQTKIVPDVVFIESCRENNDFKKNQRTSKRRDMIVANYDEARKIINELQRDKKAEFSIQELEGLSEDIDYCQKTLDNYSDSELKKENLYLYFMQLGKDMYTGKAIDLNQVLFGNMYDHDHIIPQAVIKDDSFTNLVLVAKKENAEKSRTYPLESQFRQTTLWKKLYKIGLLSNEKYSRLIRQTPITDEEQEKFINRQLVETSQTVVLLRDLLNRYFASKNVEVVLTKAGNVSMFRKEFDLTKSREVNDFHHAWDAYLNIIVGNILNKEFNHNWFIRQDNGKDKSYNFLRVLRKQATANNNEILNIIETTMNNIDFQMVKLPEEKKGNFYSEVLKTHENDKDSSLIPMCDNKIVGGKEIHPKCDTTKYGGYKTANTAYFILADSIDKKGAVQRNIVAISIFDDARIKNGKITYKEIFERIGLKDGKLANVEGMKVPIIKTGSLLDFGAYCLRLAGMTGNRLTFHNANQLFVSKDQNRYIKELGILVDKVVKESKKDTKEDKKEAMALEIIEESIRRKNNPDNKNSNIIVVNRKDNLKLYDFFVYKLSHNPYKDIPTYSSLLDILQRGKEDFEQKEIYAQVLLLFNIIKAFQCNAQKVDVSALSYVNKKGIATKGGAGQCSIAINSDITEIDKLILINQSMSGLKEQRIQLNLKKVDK
Conditions: TXTL; PAM NRAANYNN

Series [2] relates to T2, OMNI-104 (metagenomic, unknown).
T2 sequence: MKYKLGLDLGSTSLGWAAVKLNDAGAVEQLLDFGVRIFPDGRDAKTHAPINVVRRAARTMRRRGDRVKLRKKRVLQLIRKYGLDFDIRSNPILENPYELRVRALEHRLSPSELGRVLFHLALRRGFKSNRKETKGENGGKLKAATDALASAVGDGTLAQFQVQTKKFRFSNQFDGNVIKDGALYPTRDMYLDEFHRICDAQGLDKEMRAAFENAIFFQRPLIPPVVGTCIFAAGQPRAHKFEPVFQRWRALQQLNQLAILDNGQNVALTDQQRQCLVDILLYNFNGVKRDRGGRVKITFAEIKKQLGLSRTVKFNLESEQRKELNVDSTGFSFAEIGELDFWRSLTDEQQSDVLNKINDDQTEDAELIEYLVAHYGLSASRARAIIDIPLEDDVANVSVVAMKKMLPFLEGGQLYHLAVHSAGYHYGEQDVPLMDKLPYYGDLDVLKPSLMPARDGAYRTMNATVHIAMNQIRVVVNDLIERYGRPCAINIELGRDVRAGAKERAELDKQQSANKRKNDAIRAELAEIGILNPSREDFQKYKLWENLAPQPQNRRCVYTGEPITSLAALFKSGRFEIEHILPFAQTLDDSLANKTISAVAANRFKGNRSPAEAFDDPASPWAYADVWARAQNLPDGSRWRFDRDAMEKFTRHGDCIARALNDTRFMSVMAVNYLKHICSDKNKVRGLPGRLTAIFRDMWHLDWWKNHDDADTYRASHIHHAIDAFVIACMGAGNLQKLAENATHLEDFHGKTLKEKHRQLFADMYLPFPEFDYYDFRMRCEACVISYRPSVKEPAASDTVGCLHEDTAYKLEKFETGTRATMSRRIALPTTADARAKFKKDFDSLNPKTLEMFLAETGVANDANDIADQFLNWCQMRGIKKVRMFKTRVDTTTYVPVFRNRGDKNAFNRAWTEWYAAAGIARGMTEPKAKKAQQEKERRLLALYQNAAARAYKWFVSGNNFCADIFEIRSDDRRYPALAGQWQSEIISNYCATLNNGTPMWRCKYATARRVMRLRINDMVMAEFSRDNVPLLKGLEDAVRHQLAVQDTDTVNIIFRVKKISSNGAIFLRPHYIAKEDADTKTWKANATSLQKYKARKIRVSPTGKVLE
Conditions: TXTL; PAM NRRRNYCN

For series [3], the system named is T3, OMNI-101 (metagenomic, unknown).
T3 sequence: T2 sequence with A151T, K1084Q
Conditions: TXTL; PAM NRRRNNNN

Series [4] relates to T4, OMNI-105 (metagenomic, unknown).
T4 sequence: T2 sequence with T1080P, K1084Q
Conditions: TXTL; PAM NRRRNNNN

Consider “GGAAGAGCAGAGCCUUGGUCUCGUUAUUUUGAAUACUAGAAAGUGUAUUUAAAGUAAAUAAAAAGUUAAAUUUAAAGAUAAAAGUAAAUAAUUAGUAAAUUAACUUCUGAUAAUGUGAAAUUCAUUUGUUUUUU / GGAAGAGCAGAGCCTTGGTCTCNNNNNNNN / NNNNNNNNGAGACCAAGGCTCTGCTCTTCC [T2 sgRNA 39 V1 ; T2 protospacer + 8N PAM library (pbPOS T2)]”, for which the activity (1-depletion score) in series [1] was 0.99.
Regarding “GGAAGAGCAGAGCCUUGGUCUCGUUGCACCUAGACACCGAAAGGUGUCUUUGUGUUAAUAAGAACCUUUCUUUGGAAAGGAGUUCACCAUUUACAAACAGGCACUUCGGUGUCUGUUUUUUU / GGAAGAGCAGAGCCTTGGTCTCNNNNNNNN / NNNNNNNNGAGACCAAGGCTCTGCTCTTCC [T2 sgRNA 14 V1 ; T2 protospacer + 8N PAM library (pbPOS T2)]”, the activity (1-depletion score) in series [2] was 0.98; in series [3], 0.97; in series [4], 0.94.
Taken in the same sequence, the figures for “GGAAGAGCAGAGCCUUGGUCUCGUUGCACCUAGACACCGAGAAAUCGGUGUCUUUGUGUUAAUAAGAACCUUUCUUUGGAAAGGAGUUCACCAUUUACAAACAGGCACUUCGGUGUCUGUUUUUU / GGAAGAGCAGAGCCTTGGTCTCNNNNNNNN / NNNNNNNNGAGACCAAGGCTCTGCTCTTCC [T2 sgRNA 13 V1 ; T2 protospacer + 8N PAM library (pbPOS T2)]” were 0.92, 0.98 and 1.
Regarding “GGAAGAGCAGAGCCUUGGUCUCGUUGCACCUAGACGAAAGUCUUUGUGUUAAUAAGAACCUUUCUUUGGAAAGGAGUUCACCAUUUACAAACAGGCACUUCGGUGUCUGUUUUUU / GGAAGAGCAGAGCCTTGGTCTCNNNNNNNN / NNNNNNNNGAGACCAAGGCTCTGCTCTTCC [T2 sgRNA 11 V1 ; T2 protospacer + 8N PAM library (pbPOS T2)]”, the activity (1-depletion score) turned out to be 1 in series [2], 0.96 in series [3] and 0.98 in series [4].
“GGAAGAGCAGAGCCUUGGUCUCGUUUGAGAGUAUUGUUAUUGAAAAAUAACAAUCGUUCAAAUAAGGUUUUACCUUAAGCAUCCUAUUGGAUCAGUCGACUAACCAGAGUCGACUAUUUUUU / GGAAGAGCAGAGCCTTGGTCTCNNNNNNNN / NNNNNNNNGAGACCAAGGCTCTGCTCTTCC [T2 sgRNA 34 V1 ; T2 protospacer + 8N PAM library (pbPOS T2)]” displayed an activity (1-depletion score) in series [1] of 0.94.
With “GGAAGAGCAGAGCCUUGGUCUCGUUUGAGAGUAUUGUUGAAAAACAAUCGUUCAAAUAAGGUUUUACCUUAAGCAUCCUAUUGGAUCAGUCGACUAAUCAGAGUCGACUAUUUUUU / GGAAGAGCAGAGCCTTGGTCTCNNNNNNNN / NNNNNNNNGAGACCAAGGCTCTGCTCTTCC [T2 sgRNA 19 V1 ; T2 protospacer + 8N PAM library (pbPOS T2)]”, in series [1], the activity (1-depletion score) was 0.98.
